The term logD denotes the decadic logarithm of the distribution of all forms, ionised or not, between an organic phase and buffer at a given pH. A word on the Km: it is the concentration of substrate that gives half-maximal velocity.

These results are taken from paper PMC4519333, “Preclinical Evaluation of a Potential GSH Ester Based PET/SPECT Imaging Probe DT(GSHMe)2 to Detect Gamma Glutamyl Transferase Over Expressing Tumors” (PLoS ONE, 2015).

Data set [1] in a line: Log P calculation (octanol/PBS partition). It counts as physicochemical. The note with it: pH 7.4. How it is done: The value of partition coefficient of radiolabeled […] calculated and expressed as log P. The radiolabeled […] passed through 0.22 μ filter and approximately 10.2 ± 1.5 MBq of labeled compound was diluted in PBS, pH 7.4. To this equal volume of 1-octanol was added. The mixture was thoroughly vortexed for 10 min and then centrifuged at 5000 rpm for 5 min. […] The measurement was repeated thrice. The partition coefficient (P) was calculated using the following equation wherein, P = (counts in octanol fraction) / (counts in PBS fraction). For each value of P, log P value is calculated.

The target in data set [2] is T1, GGT on the surface of BMG-1 cells (Homo sapiens, UniProt P19440).
T1 construct: endogenous in cells; host or cells: BMG-1 cerebral glioma cells (monolayer)
Briefly: Cell binding studies on BMG-1 cells (Scatchard). The conditions noted are these: 2 h, 37°C, Scatchard plot. How it is done:
(§1) The specificity of ^99[…])2 to bind externally on tumor cells were examined by receptor binding assays on EAT cells isolated from the ascitic fluid of BALB/c Mice. Cells were diluted to 2 x 10^6 cells per mL and were aliquoted in different micro centrifuge tubes. Cells were washed twice with HBSS and finally resuspended in 1 mL of HBSS. Cells were then treated with various concentration of ^99[…]) for 2 h at 37°C. […] Specific binding was obtained by subtracting nonspecific binding from total binding. At the end of each incubation time, the cells were washed with cold PBS twice and pelleted down. Finally, cells were lysed and cell-associated radioactivity was determined by gamma counting. The total protein content of cells was estimated by Bicinchoninic acid (BCA) method. Similarly the binding experiments were performed on monolayer of BMG-1 cells (2 x 10^6) and were treated with ^99[…]) for 2 h at 37°C. […] Cells were lysed and cell associated radioactivity was determined. The total protein content was determined by BCA method. Scatchard Plot were plotted to determine Kd and Bmax.

Details of data set [3]: species or system mice. The conditions noted are these: mouse, in vivo, iv. How it is done:
Blood clearance was performed to observe the rate of clearance of drug post administration. Radiolabeled conjugate 0.25 mg/Kg body weight of ^99mTc-DT(GSHMe)2 (22.2 ± 2.8 MBq) was administered intravenously through the tail vein of the mice. Blood samples were withdrawn at different time intervals (5, 15, 30 min, 1, 2 and 24 h). Decay corrected radioactivity is expressed as % ID, assuming a weight based theoretical blood volume as 7% of the body weight.

Data set [4] addresses T2, GGT on the surface of EAT cells (Mus musculus, UniProt Q60928).
T2 construct: endogenous in cells; host or cells: Ehrlich Ascites tumor (EAT) cells, strain F-3, passaged in BALB/c mice
Briefly: Cell binding studies on EAT cells (Scatchard). More on the design: species or system mice. The conditions noted are these: 2 h, 37°C, Scatchard plot. How it is done: as §1

The subject of data set [5] is EAT cells. Description: Time course and kinetics of uptake. It counts as cell-based, mice. On the procedure: EAT cells were isolated from ascitic fluid of BALB/c mice and were diluted to 3 x 10^6 cells/mL. Cells were aliquoted in different micro centrifuge tubes and were treated with 200 μM of ^99mTc-DT(GSHMe)2 for different time intervals (0, 10, 30 sec, 1, 2, 5, 10, 30 min, 1 and 2 h). After the treatment, cells were centrifuged at 2000 rpm for 5 min and supernatant was carefully removed. Followed by three washes of cold saline and acidic wash buffer, cells were centrifuged to yield the pellet. The pellet was dissolved in 500 μL of lysis buffer. The amount of radioactivity (CPM) in cell lysate was determined by gamma counter. Later, after the activity decayed, total protein from the cells was estimated by BCA method of protein estimation. Absorbance values were determined at 595 nm on a multi plate reader. A standard plot was constructed taking various dilutions of BSA. Drug uptake was calculated and plotted.

Data set [6] concerns BALB/c mice bearing EAT tumor and turpentine oil inflammation. Description: SPECT imaging, tumor versus inflammation. Type of data set: in vivo. The conditions noted are these: 2 h post i.v., EAT tumor hind limb, inflammation fore limb. How it is done:
Athymic male mice were xenografted with BMG-1 human tumor cell line (0.1 mL of cell suspension containing ~5 ×10^6 BMG cells) in the flank region of the hind limb. BALB/c mice were inoculated with EAT murine tumor cells (5–6 × 10^6) in the flank region of the right hind limb. An inflammation lesion was induced in the fore limb by intramuscular injection of turpentine oil (100 μL) 48 h before imaging. For Scintigraphy, (n = 6) mice used for imaging, biodistribution studies (n = 32 mice) for two experiments 4 mice/group for 4 time points and blood kinetics (n = 18).
Xenografted experimental models were intravenously administered 0.1mg/Kg body weight ^68Ga-DT(GSHMe)2 (37 ± 2.2 MBq) and 0.25 mg/Kg Body weight ^99mTc-DT(GSHMe)2 (29.6 ± 1.8 MBq) via tail vein for PET and SPECT respectively. Blocking dose of ~ 5 mg/Kg body weight of GSH was administered intravenously in the experimental animal. The acquisition was performed 2 h post injection. The ratios were calculated from counts per pixel of individual ROI (Region of interest) for semi-quantitative analysis to understand the distribution and localization.

Data set [7] is described as follows: in vivo. Set-up: species or system mice. The note with it: BALB/c, mouse, iv, 0.25 mg/kg body weight, total radioactivity. On the procedure: Radiolabeled ^99mTc-DT(GSHMe)2 (0.25 mg/Kg body weight) in a volume of 150 μL (11.1 ± 1.2 MBq) was carefully injected through the tail vein of each BALB/c mice xenografted with EAT Tumors in the hind limb. At 30 min, 1, 2 and 4 h post injection mice were sacrificed and different organs and tissues were dissected out. All the organs and tissues were rinsed in saline, weighed and counted in a gamma counter. Uptake of the radiotracer in each tissue was calculated and expressed as a percentage injected dose per gram of the tissue (% ID/g) and corrected for ^99mTc decay.

T2 sequence (Q60928 1-379 limits assumed): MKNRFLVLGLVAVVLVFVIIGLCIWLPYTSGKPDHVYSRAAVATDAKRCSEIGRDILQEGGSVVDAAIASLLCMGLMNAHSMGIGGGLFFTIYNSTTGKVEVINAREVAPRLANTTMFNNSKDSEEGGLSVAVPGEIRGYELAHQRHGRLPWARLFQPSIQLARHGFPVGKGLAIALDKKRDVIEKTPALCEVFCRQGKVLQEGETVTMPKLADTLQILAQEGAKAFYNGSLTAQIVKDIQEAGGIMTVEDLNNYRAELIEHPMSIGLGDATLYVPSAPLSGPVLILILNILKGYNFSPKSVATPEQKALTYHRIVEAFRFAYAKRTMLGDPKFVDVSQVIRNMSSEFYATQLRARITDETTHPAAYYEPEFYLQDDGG
T2 sequence (Q60928 380-568 limits assumed): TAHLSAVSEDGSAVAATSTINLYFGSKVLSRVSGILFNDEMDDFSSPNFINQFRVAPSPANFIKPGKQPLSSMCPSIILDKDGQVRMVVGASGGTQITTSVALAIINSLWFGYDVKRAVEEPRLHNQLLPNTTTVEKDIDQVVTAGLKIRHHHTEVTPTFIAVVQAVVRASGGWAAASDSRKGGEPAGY
T1 sequence (P19440 1-380 limits assumed): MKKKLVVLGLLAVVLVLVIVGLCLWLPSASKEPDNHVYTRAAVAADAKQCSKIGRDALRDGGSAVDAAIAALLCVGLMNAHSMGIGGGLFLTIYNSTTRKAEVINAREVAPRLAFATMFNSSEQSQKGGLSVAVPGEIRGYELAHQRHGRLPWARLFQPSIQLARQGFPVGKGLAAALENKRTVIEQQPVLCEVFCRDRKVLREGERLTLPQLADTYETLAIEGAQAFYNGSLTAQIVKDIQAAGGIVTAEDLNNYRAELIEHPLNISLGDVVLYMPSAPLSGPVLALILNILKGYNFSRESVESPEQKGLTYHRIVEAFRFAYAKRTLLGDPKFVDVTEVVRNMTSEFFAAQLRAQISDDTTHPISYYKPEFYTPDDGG
T1 sequence (P19440 381-569 limits assumed): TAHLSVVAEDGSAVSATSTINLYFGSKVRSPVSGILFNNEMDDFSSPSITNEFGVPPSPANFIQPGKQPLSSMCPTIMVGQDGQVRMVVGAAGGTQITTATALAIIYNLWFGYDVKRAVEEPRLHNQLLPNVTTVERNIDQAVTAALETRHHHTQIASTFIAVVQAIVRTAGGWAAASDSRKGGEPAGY

`CCOC(=O)CNC(=O)[C@H](CS)NC(=O)CC[C@H](NC(=O)CN(CCN(CCN(CC(=O)O)CC(=O)N[C@@H](CCC(=O)N[C@@H](CS)C(=O)NCC(=O)OCC)C(=O)O)CC(=O)O)CC(=O)O)C(=O)O` [99mTc-DT(GSHMe)2, metal not drawn]: the logD in data set [1] was -1.31 ± 0.104. Moreover, the results for the Bmax in data set [2] and in data set [4] were 17.2 nM and 91.02 nM, respectively. The “biological half-life t1/2 (Slow)” value in data set [3] amounted to 15.44. This molecule also had a t1/2 slow in data set [3] of 15.44 h. Moreover, the “biological half-life t1/2 (Fast)” value in data set [3] (0.25 mg/kg) was 8.8 min. For the same molecule, the “maximal transport rate velocity (Vmax)” value in data set [5] worked out at 0.478 µM/min. The Km in data set [5] (Eadie-Hofstee, read-out: Michaelis constant (Km) of transport) amounted to 2.25 µM. Moreover, in data set [6], the “tracer localisation tumor versus inflammation” value is on record as “substantial amount of radiotracer concentration at tumor site”. The tissue to tissue ratio at 2 h in data set [7] worked out at 24.
